Data from patent US20250115669A1, “FGFR1/KLB Targeting Agonistic Antigen-Binding Proteins and Conjugates Thereof with GLP-1R Agonistic Peptides” (SANOFI, priority 2020, published 2025).
Residue numbers refer to the chain shown, from its start. In names and notes the source's numbering stands.

B1: Ab0379: IgG4 PE; 16H7 VL (Y48del, D95V, W90F, S1C, S94C); 16H7 VH (M34V, F54W, I83T, D109E) (antibody)
VH: QVTLKESGPVLVKPTETLTLTCTVSGFSLNNARVGVSWIRQPPGKALEWLAHIWSNDEKSYSTSLKSRLTISKDTSKSQVVLTMTNMDPVDTATYYCARSVVTGGYYYEGMDVWGQGTTVTVSS
light: CYVLTQPPSVSVAPGQTARITCGGNNIGSESVHWYQQKPGQAPVLVVDDSDRPSGIPERFSGSNSGNTATLTISRVEAGDEADYYCQVFDGNCVHVVFGGGTKLTVLGQPKANPTVTLFPPSSEELQANKATLVCLISDFYPGAVTVAWKADGSPVKAGVETTKPSKQSNNKYAASSYLSLTPEQWKSHRSYSCQVTHEGSTVEKTVAPTECS
B2: Ab0381: IgG4 PE; 16H7 VL (Y48del, D95V, W90F, S94C, H96C); 16H7 VH (M34V, F54W, I83T, D109E) (antibody)
VH: B1 VH
light: B1 light with C1S, H95C
B3: Ab0393: IgG4 PE; 16H7 VL (Y48del, D95S, W90F, S94C, H96C); 16H7 VH (M34V, H52W, I83T, D109E) (antibody)
VH: B1 VH with H52W, W54F
light: B1 light with C1S, V94S, H95C
B4: Ab0382: IgG4 PE; 16H7 VL (Y48del, D95V, W90F, S94C, H96C); 16H7 VH (M34V, H52S, F54W, I83T, D109E) (antibody)
VH: B1 VH with H52S
light: B1 light with C1S, H95C
B5: Ab0380: IgG4 PE; 16H7 VL (Y48del, D95V, W90F, S1C, S94C); 16H7 VH (M34V, H52S, F54W, I83T, D109E) (antibody)
VH: B1 VH with H52S
light: B1 light
B6: Ab0391: IgG4 PE; 16H7 VL (Y48del, D95S, W90F, S94C, H96C); 16H7 VH (M34V, H52S, F54W, I83T, D109E) (antibody)
VH: B1 VH with H52S
light: B1 light with C1S, V94S, H95C
B7: Ab0390: IgG4 PE; 16H7 VL (Y48del, D95S, W90F, S94C, H96C); 16H7 VH (M34V, F54W, I83T, D109E) (antibody)
VH: B1 VH
light: B1 light with C1S, V94S, H95C
B8: Ab0383: IgG4 PE; 16H7 VL (Y48del, D95V, W90F); 16H7 VH (M34V, H52W, I83T, D109E) (antibody)
VH: B1 VH with H52W, W54F
light: B1 light with C1S, C93S
B9: Ab0392: IgG4 PE; 16H7 VL (Y48del, D95S, W90F); 16H7 VH (M34V, H52W, I83T, D109E) (antibody)
VH: B1 VH with H52W, W54F
light: B1 light with C1S, C93S, V94S
B10: Ab0389: IgG4 PE; 16H7 VL (Y48del, D95S, W90F, S1C, S94C); 16H7 VH (M34V, H52S, F54W, I83T, D109E) (antibody)
VH: B1 VH with H52S
light: B1 light with V94S

Target: T1, human beta-Klotho (Homo sapiens, UniProt Q86Z14)
T1 sequence (Q86Z14 1-1044): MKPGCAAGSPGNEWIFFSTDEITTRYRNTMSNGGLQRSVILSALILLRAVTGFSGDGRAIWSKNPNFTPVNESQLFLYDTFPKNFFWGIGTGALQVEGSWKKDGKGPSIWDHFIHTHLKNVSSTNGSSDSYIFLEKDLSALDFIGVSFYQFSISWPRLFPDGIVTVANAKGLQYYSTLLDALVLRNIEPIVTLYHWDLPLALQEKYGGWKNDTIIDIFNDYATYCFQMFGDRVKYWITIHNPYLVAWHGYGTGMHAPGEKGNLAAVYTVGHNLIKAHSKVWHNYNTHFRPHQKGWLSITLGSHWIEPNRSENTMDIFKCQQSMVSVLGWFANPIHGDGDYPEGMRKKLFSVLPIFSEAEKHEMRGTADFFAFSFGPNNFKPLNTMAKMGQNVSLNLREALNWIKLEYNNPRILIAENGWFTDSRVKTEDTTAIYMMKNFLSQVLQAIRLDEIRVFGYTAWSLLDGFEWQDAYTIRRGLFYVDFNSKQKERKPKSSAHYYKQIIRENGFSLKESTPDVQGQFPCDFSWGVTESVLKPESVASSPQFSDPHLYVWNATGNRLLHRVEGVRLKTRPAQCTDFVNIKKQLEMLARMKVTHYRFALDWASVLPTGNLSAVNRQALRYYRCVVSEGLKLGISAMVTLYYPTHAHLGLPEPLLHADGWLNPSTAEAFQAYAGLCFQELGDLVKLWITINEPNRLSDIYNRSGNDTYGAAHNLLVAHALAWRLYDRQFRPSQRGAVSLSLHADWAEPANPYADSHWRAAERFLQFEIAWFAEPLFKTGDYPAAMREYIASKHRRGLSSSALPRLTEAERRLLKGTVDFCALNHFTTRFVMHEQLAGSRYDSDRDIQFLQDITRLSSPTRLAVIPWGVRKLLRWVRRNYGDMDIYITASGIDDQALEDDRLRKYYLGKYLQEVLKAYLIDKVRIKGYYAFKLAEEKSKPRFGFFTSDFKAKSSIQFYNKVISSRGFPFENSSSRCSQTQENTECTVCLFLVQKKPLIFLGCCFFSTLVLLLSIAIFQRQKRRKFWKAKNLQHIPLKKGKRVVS
Test: SPR off-rate screening of antibody mutants (human beta-Klotho captured by anti-His antibody)
Type: binding
Conditions: mean, n=3
Experimental: Screening of antibody mutants for binding to human beta-Klotho was determined in a different SPR assay set up. Human beta-Klotho was affinity captured by an anti-His antibody (from His capture kit, GE Healthcare) that was immobilized to a series S CM5 chip (GE Healthcare) by amine reactive coupling as described above. The antibody samples were used as analytes at 50 nmol/L concentration. Association time was 240 sec and dissociation time was 300 sec. Chip surfaces were regenerated using the regeneration solution supplied with the His capture kit. The off-rates (kd) were determined using single exponential fitting in the Biacore 8K Evaluation Software version 1.1.1.7442 (GE Healthcare).

Molecule	koff human KLB
B1	no binding
B2	no binding
B3	no binding
B4	no binding
B5	no binding
B6	no binding
B7	no binding
B8	no binding
B9	no binding
B10	no binding
